Measurements reported in the supplement of paper PMC9170038.

Tested on: K4 kissing-loop RNA reporter
Experiment: apparent KD of K4 kissing-loop reporter; higher = weaker reporter binding
Settings: Eterna round: R107; input ligand: arginine 13.2 mM
Protocol: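 RNA-MaP round R107: designed RNA switches with theophylline, tryptophan, arginine or FMN aptamers are transcribed on-chip within common flanks. They are titrated with a labelled K4 kissing-loop RNA reporter in RNA-MaP buffer (100 mM Tris pH 7.5, 80 mM KCl, 4 mM MgCl2), without ligand or with the indicated ligand. Median apparent KD per design.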
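Note: bound reporter read as fluorescence of individual clusters on recovered sequencing chips by microscopy, with normalized cluster intensities fitted with a binding model.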

Compared with “UGUCAUUGGUCGGCCGCCACUUCGUAUGAAGUGAUGUUUUGUAGAUUGUGUUGAAAGGUAUGGUGAAGGACCGGGACCGAUGACU [FiskerMod 22 - Jieux - Same State - Tryptophan B]”, “AAGUGUCAUUAGACACACGCAUCUAUAAACUAGGAUAUGCUGAUAAGCAGAAGGAGUGAUGUUCCUUUCAUGAUGCGAAUUAAAU [#07 K4 FMN A Exclusion]” is 2.2-fold lower in “apparent KD of K4 kissing-loop reporter” value: 266 nM for the first, 123 nM for the second.

“GUCCAACCUGGAGGAUAUCUGCUGUCCAGUGAUGUUGGACACCUUAGUAAAGGCCGGGUAGCCCGCAGAGAAGGCCGGAGUUGCC [Isateron]” and “AAGUGUGUGGCGGCCGCCACUAGAAUCCAGUGAUGUUGGAGAUAUCACGUAAGUGAUAUCCAUCAUAGGACCGGGCCAUAUAGAA [Same State - Tryptophan B (Freestyle 18)]” are within 1.5-fold of each other in “apparent KD of K4 kissing-loop reporter” value: 354 nM for the first, 389 nM for the second.

Compared with “GACAGUCGGUGUUAAUGACAGUUACGCGAUACCAGCGAAACAGUACGCCCUUGGCAGCGCAGUGAUGUUGCGCGCCUAGUGUGGU [Esbiceve]”, “UUACUACCCAGUGAUGUUGGGUAGCGGCGGCGAGGACCGGUACGGCCGCCACUCGGCGCACGGGAGUGAUGUUCCUAAGAAUAAA [Same State Tryptophan A GF 9]” is 3.2-fold higher in “apparent KD of K4 kissing-loop reporter” value: 94.8 nM for the first, 306 nM for the second.

Compared with “AAUAACUUGCAGUGAUGUUGCAAGAAAUCUCAGGAUAUCAGGAAACUGAGAAGGGAGUAUCCUGAGUAAACAUCACAUCUUAGGA [KL-SSFMN-A8]”, “AGUGAUGUUGUGUUAUCUUAGUGAAGUGAUCGAGGACCGGUACGGCCGCCACUCGAGUGAUGAGUGAGUGAUGUUUGUUUAGGGA [vvbmullin]” is 1.8-fold higher in “apparent KD of K4 kissing-loop reporter” value: 364 nM for the first, 673 nM for the second.

Going from “UGUCAUGGAAACAUGAACGUUAAAAUAAAUCGAGGACCGGUACGGCCGCCACUCGUAUAGCGGUCAGUGAUGUUGACUGUAGUAC [KL-SSTryp-A form2 sub11 #dotplot2>1]” to “UUGUUUUACUGAAGGAGCGGCAAUUGAUACGUAGAUAUAGUGAUGUUAUAUAAGAUAGAGAGCCAGGUAGGUCGCAGAUGUGUUU [ExArgB.T]”, the “apparent KD of K4 kissing-loop reporter” value rises from 110 nM to 205 nM (1.9-fold).

Going from “UGAUACCAGACGGCCGCCACUCCCGUAAGUCAAAGACUUACCAAGAGUAUCGUCCAGUGAUGUUGGAGGACCGGGUCUGGUAUCU [FiskerMod 9 - Jieux - Exclusion - Tryptophan B]” to “UGAUAGGACAGAAGGAGCGGAAGUGAUGUUUCCAAAAGGGUAAGGUGUCAAAAGACACCCUUCCAGGUAGGUCGCUGUCCUAUCU”, the “apparent KD of K4 kissing-loop reporter” value falls from 321 nM to 109 nM (2.9-fold).

First: CCUAUCUCAUACGAUACCAGUCAAUUAAAACGAGUGAUGUUCGAAAAUUUGCCAUAUAAUGACCCUUGGCAGCGUAUGGGAUAGG [Ex Theophylline B K4 7]
Second: GCCGUAGAUUGAAGGAGCGGCUUCAUCAAAUCUCUUGCCCGCACCAGUGAUGUUGGUGUUAGCCAGGUAGGUCGCAAUCUACGGC
The “apparent KD of K4 kissing-loop reporter” value of the first is 1.9-fold lower: 196 nM for the first, 376 nM for the second.

“AAACAUCACUGGGAGUGAUGUUCUCAGUGACGAGGACCGGUACGGCCGCCACUCGCGAGAGAUUUAGUCUAGUAUUGACUGCAUU [Excl Tryptophan A V11]” and “AGUGAUGUGGGAAGGAGCGGUAUAUGAGUUCAGUGAUGUUGAAGUGAUGCUGUAGUGAUGUGCCAGGUAGGUCGCCUAGAUGUUA [whbob_Ex_Arginine_B_2th165]” are within 1.5-fold of each other in “apparent KD of K4 kissing-loop reporter” value: 273 nM for the first, 217 nM for the second.

“GGGCGUAUUCACCGAGUGAUGUUCGGAAGGAAGGAUAUUCAAGAUUGAAGAAGGUCCGGCCCAUCGGCCAUUAAACUUGAAAGGU [theeternabot_sameState_KL_FMN_A_48]” and “AUUCGUUUAUGUGAUACCAGACUUUGCAGUGAUGUUGCAUUAAUUAUUGAUGAUUAGUUUGUCCCUUGGCAGCACUAUUUAUUUA [JR_SSTheophyB_Sub003]” are within 1.5-fold of each other in “apparent KD of K4 kissing-loop reporter” value: 113 nM for the first, 105 nM for the second.

First: AUGUCUUAUAAACUCAUGGUUUCGACAGAUACCAGCUUCGAGAGGAGCCCUUGGCAGCUGCAUGAGUGAUGUUCAUGUACGAAGA [KL-XTheoA6]
Second: GGUUCCUCAGUGAUGUUGAGGUGACCUCGGCAGGAUAUAGGCAUUACUAGAAGGGCCAAAUGAACCCUGUCCAGCGGCACAGGGA [Arleorbile]
The “apparent KD of K4 kissing-loop reporter” value of the first is 1.6-fold higher: 336 nM for the first, 213 nM for the second.

“AACCACUCGUUACAUCACUAUCGAGUGGAACGAGGACCGGUACGGCCGCCACUCGAUAAGAUGCAGUGAUGUUGCAUCUAAGAAU [KL-SSTryp-A (BrourdMod)5 #dotplot2 strengthened]” and “GCCUGAGCACGAAGGAGCGCCGUGACAGGUUACUGCCUUGGGCAGUGAUGUUGCUCAAUCUGGCAGGUAGGUCGCGUGCUCAGGC” are within 1.5-fold of each other in “apparent KD of K4 kissing-loop reporter” value: 168 nM for the first, 161 nM for the second.

First: UGUACCGAGUCAGGAUAUAGCGUCGAAAGACGAAAUGGAGUGAUGUUCCUUAAACUGCGAAAGCAGCUAGAAGGGACUUGGUACU [FmnBS 28 #SwitchBubble #StaticStem #DoubleMagnetSystem]
Second: CGCAGUGAUGUUGCGAGUUCAUUCAGGGAAGGAGCGCCACAGAUGGCAGGUAGGUCGCCCACGCAGUGAUGUUGUGUAUUCGGGU [Exclusion Arginine A GF 2]
The “apparent KD of K4 kissing-loop reporter” value of the first is 1.5-fold higher: 234 nM for the first, 153 nM for the second.

First: UACUAUAGUGAUGUUAUAGAUAAACCAGAUACCAGUGUAACAUAACACCCUUGGCAGCUGAUGAGGGAAGUUAUCAAAAGAUAAC [AstroSTH-A#10designED4.80]
Second: UUUUUGGAGAAUUAUAGUGAUGUUAUGAAGGAGGAUAUCUGGAGAUGGAGAAGGCCUAGUGGCUCAGCCCUGGAGGGUGGGUGGG [ExFMNA.aB]
The “apparent KD of K4 kissing-loop reporter” value of the first is 3-fold lower: 190 nM for the first, 562 nM for the second.

In the case of “UUACAGGAACAAGGAUAUGGCGUUGUAGUGAUGUUACAGCGAAGAGCUCCACGCGAUCGGACAAAACCAGAAGGUGUAUGGAAUC [theeternabot_exclusion_KL_FMN_B_42]”, the “apparent KD of K4 kissing-loop reporter” value was 108 nM.
